Data on one molecule can be found in paper PMC6681339, “CoCUN, a Novel Ubiquitin Binding Domain Identified in N4BP1” (Biomolecules, 2019).

The target of test [1] is T1, ubiquitin (UniProt P0CG48 1-76, 15N labelled in the complementary NMR experiment; unlabelled otherwise).
T1 construct: the model of the complex used the ubiquitin structure PDB 1D3Z and BMRB 6457; also called monoubiquitin; UBQ
Description: ITC; 3.3 mM ubiquitin titrated to 246 µM N4BP1 (847-896) in the cell; 20 mM Tris-HCl pH 8.0, 150 mM NaCl, 5% glycerol; room temperature; one-site binding model. The following applies: both partners purified. A general note: In ITC the heat of successive injections is recorded.

Test [2] has as its target T1, ubiquitin. As to the kind of experiment: ITC; 2.78 mM N4BP1 (847-896) titrated to 200 µM ubiquitin in the cell; 20 mM Tris-HCl pH 8.0, 150 mM NaCl, 5% glycerol; room temperature; one-site binding model. To be noted: both partners purified.

No end group written: not given here.

B1: CoCUN domain of N4BP1 (aa 847–896), purified polypeptide (domain or fragment, human, UniProt O75113 847-896, looked up)
chain: AQRSSAETNELREALLKIFPDSEQRLKIDQILVAHPYMKDLNALSAMVLD
modifications: also: 15N isotopic labelling
notes: also called Cousin of CUBAN; N4BP1 UBD; source: bacterial expression (protocol for NMR sample preparation), purified
The term Kd denotes the constant that tells how readily two partners part at equilibrium. In turn, B1 returned a Kd with ubiquitin [1] of 49.7 ± 3.6 µM. In the test with ubiquitin [2], the Kd was found to be 61.8 ± 5.2 µM and the dH is -3.11 ± 0.0956 kcal/mol.
